This data set concerns the molecule itself. Kind of data set: cryo-EM structure; apo TRPV3 T96A in PMAL-C8 amphipol, 50 mM Tris pH 8, 150 mM NaCl; Titan Krios 300 keV; C4 symmetry, ~3.4 Å.

B1: full-length human TRPV3 containing the point mutation T96A (natural protein, UniProt Q8NET8-1 1-790, looked up)
chain: MKAHPKEMVPLMGKRVAAPSGNPAILPEKRPAEITPTKKSAHFFLEIEGFEPNPTVAKTSPPVFSKPMDSNIRQCISGNCDDMDSPQSPQDDVTEAPSNPNSPSAQLAKEEQRRKKRRLKKRIFAAVSEGCVEELVELLVELQELCRRRHDEDVPDFLMHKLTASDTGKTCLMKALLNINPNTKEIVRILLAFAEENDILGRFINAEYTEEAYEGQTALNIAIERRQGDIAALLIAAGADVNAHAKGAFFNPKYQHEGFYFGETPLALAACTNQPEIVQLLMEHEQTDITSRDSRGNNILHALVTVAEDFKTQNDFVKRMYDMILLRSGNWELETTRNNDGLTPLQLAAKMGKAEILKYILSREIKEKRLRSLSRKFTDWAYGPVSSSLYDLTNVDTTTDNSVLEITVYNTNIDNRHEMLTLEPLHTLLHMKWKKFAKHMFFLSFCFYFFYNITLTLVSYYRPREEEAIPHPLALTHKMGWLQLLGRMFVLIWAMCISVKEGIAIFLLRPSDLQSILSDAWFHFVFFIQAVLVILSVFLYLFAYKEYLACLVLAMALGWANMLYYTRGFQSMGMYSVMIQKVILHDVLKFLFVYIVFLLGFGVALASLIEKCPKDNKDCSSYGSFSDAVLELFKLTIGLGDLNIQQNSKYPILFLFLLITYVILTFVLLLNMLIALMGETVENVSKESERIWRLQRARTILEFEKMLPEWLRSRFRMGELCKVAEDDFRLCLRINEVKWTEWKTHVSFLNEDPGPVRRTDFNKIQDSSRNNSKTTLNAFEEVEEFPETSV
notes: Transient receptor potential vanilloid channel 3 (TRPV3), human, full length, with the stabilising point mutation T96A; Homotetramer; Residues 1-117, which include T96A, were not resolved in the reconstructions; No removal of the FLAG tag is described; also called hTRPV3; TRPV3_(T96A); source: Sf9 insect cells (baculovirus), purified (anti-FLAG resin, size exclusion), reconstituted in PMAL-C8 …
In the case of B1, the “stoichiometry N” value came out at 4.
